Reference: patent US8603949B2, “Libraries of optimized cytochrome P450 enzymes and the optimized P450 enzymes” (California Institute of Technology, priority 2003, dated 2013)
Structures can show the parent of a compound that is named as a salt.

B1: Chimera 46-73: CYP102A1 heme domain with residues 46-73 from CYP102A2 (protein)
chain: TIKEMPQPKTFGELKNLPLLNTDKPVQALMKIADELGEIFKFEAPAGTTIVVSGHELVKEVCDEERFDKSIEGALKFVRDFAGDGLATSWTHEKNWKKAHNILLPSFSQQAMKGYHAMMVDIAVQLVQKWERLNADEHIEVPEDMTRLTLDTIGLCGFNYRFNSFYRDQPHPFITSMVRALDEAMNKLQRANPDDPAYDENKRQFQEDIKVMNDLVDKIIADRKASGEQSDDLLTHMLNGKDPETGEPLDDENIRYQIITFLIAGHETTSGLLSFALYFLVKNPHVLQKAAEEAARVLVDPVPSYKQVKQLKYVGMVLNEALRLWPTAPAFSLYAKEDTVLGGEYPLEKGDELMVLIPQLHRDKTIWGDDVEEFRPERFENPSAIPQHAFKPFGNGQRACIGQQFALHEATLVLGMMLKHFDFEDHTNYELDIKETLTLKPEGFVVKAKSKKIPLGGIPSPST
modifications: Chimeric Cytochrome P450 heme group sequence from Bacillus megaterium and Bacillus subtilis
notes: CYP102A1 heme domain with residues 46-73 from CYP102A2
B2: Chimera 118-194: CYP102A1 heme domain with residues 118-194 from CYP102A2 (protein)
chain: TIKEMPQPKTFGELKNLPLLNTDKPVQALMKIADELGEIFKFEAPGRVTRYLSSQRLIKEACDESRFDKNLSQALKFVRDFAGDGLATSWTHEKNWKKAHNILLPSFSQQAMKGYHAKMVDIAVQLIQKWARLNPNEAVDVPGDMTRLTLDTIGLCGFNYRFNSYYRETPHPFINSMVRALDEAMHQMQRLDVQDPAYDENKRQFQEDIKVMNDLVDKIIADRKASGEQSDDLLTHMLNGKDPETGEPLDDENIRYQIITFLIAGHETTSGLLSFALYFLVKNPHVLQKAAEEAARVLVDPVPSYKQVKQLKYVGMVLNEALRLWPTAPAFSLYAKEDTVLGGEYPLEKGDELMVLIPQLHRDKTIWGDDVEEFRPERFENPSAIPQHAFKPFGNGQRACIGQQFALHEATLVLGMMLKHFDFEDHTNYELDIKETLTLKPEGFVVKAKSKKIPLGGIPSPST
modifications: Chimeric Cytochrome P450 heme group sequence from Bacillus megaterium and Bacillus subtilis
notes: CYP102A1 heme domain with residues 118-194 from CYP102A2
B3: Chimera 50-140: CYP102A1 heme domain with residues 50-140 from CYP102A2 (protein)
chain: TIKEMPQPKTFGELKNLPLLNTDKPVQALMKIADELGEIFKFEAPGRVTIVVSGHELVKEVCDEERFDKSIEGALEKVRAFSGDGLATSWTHEPNWRKAHNILMPTFSQRAMKDYHEKMVDIAVQLIQKWARLNPNEAVDVPEDMTRLTLDTIGLCGFNYRFNSFYRDQPHPFITSMVRALDEAMNKLQRANPDDPAYDENKRQFQEDIKVMNDLVDKIIADRKASGEQSDDLLTHMLNGKDPETGEPLDDENIRYQIITFLIAGHETTSGLLSFALYFLVKNPHVLQKAAEEAARVLVDPVPSYKQVKQLKYVGMVLNEALRLWPTAPAFSLYAKEDTVLGGEYPLEKGDELMVLIPQLHRDKTIWGDDVEEFRPERFENPSAIPQHAFKPFGNGQRACIGQQFALHEATLVLGMMLKHFDFEDHTNYELDIKETLTLKPEGFVVKAKSKKIPLGGIPSPST
modifications: Chimeric Cytochrome P450 heme group sequence from Bacillus megaterium and Bacillus subtilis
notes: CYP102A1 heme domain with residues 50-140 from CYP102A2
B4: Chimera 65-256: CYP102A1 heme domain with residues 65-256 from CYP102A2 (protein)
chain: TIKEMPQPKTFGELKNLPLLNTDKPVQALMKIADELGEIFKFEAPGRVTRYLSSQRLIKEACDEERFDKSIEGALEKVRAFSGDGLATSWTHEPNWRKAHNILMPTFSQRAMKDYHEKMVDIAVQLIQKWARLNPNEAVDVPGDMTRLTLDTIGLCGFNYRFNSYYRETPHPFINSMVRALDEAMHQMQRLDVQDKLMVRTKRQFRYDIQTMFSLVDSIIAERRANGDQDEKDLLARMLNVEDPETGEKLDDENIRFQIITFLIAGHETTSGLLSFALYFLVKNPHVLQKAAEEAARVLVDPVPSYKQVKQLKYVGMVLNEALRLWPTAPAFSLYAKEDTVLGGEYPLEKGDELMVLIPQLHRDKTIWGDDVEEFRPERFENPSAIPQHAFKPFGNGQRACIGQQFALHEATLVLGMMLKHFDFEDHTNYELDIKETLTLKPEGFVVKAKSKKIPLGGIPSPST
modifications: Chimeric Cytochrome P450 heme group sequence from Bacillus megaterium and Bacillus subtilis
notes: CYP102A1 heme domain with residues 65-256 from CYP102A2
B5: Chimera 277-365: CYP102A1 heme domain with residues 277-365 from CYP102A2 (protein)
chain: TIKEMPQPKTFGELKNLPLLNTDKPVQALMKIADELGEIFKFEAPGRVTRYLSSQRLIKEACDESRFDKNLSQALKFVRDFAGDGLATSWTHEKNWKKAHNILLPSFSQQAMKGYHAMMVDIAVQLVQKWERLNADEHIEVPEDMTRLTLDTIGLCGFNYRFNSFYRDQPHPFITSMVRALDEAMNKLQRANPDDPAYDENKRQFQEDIKVMNDLVDKIIADRKASGEQSDDLLTHMLNGKDPETGEPLDDENIRYQIITFLIAGHETTSGLLSFATYFLLKHPDKLKKAYEEVDRVLTDAAPTYKQVLELTYIRMILNESLRLWPTAPAFSLYPKEDTVIGGKFPITTNDRISVLIPQLHRDRDIWGDDVEEFRPERFENPSAIPQHAFKPFGNGQRACIGQQFALHEATLVLGMMLKHFDFEDHTNYELDIKETLTLKPEGFVVKAKSKKIPLGGIPSPST
modifications: Chimeric Cytochrome P450 heme group sequence from Bacillus megaterium and Bacillus subtilis
notes: CYP102A1 heme domain with residues 277-365 from CYP102A2

Tests used:
Mammalian P450 = settings: cited from earlier work
[1] = Thermostability (loss of Soret band at increasing temperatures); type: physicochemical; settings: cell extracts heated 10 minutes
Protocol: Thermostability was assayed by monitoring the loss of the Soret band at increasing temperatures. […] However, thermostability may be important for retention of catalytic activity: the two chimeras that lacked peroxygenase activity were also the least thermostable.
Cell extracts were heated in a thermocycler for 10 minutes at various temperatures, followed by cooling to 4° C. Extracts were centrifuged for 5 minutes at 3500×g to remove any precipitates. Carbon monoxide reduced difference spectroscopy was used to quantitate the amount of P450. The reduction of the carbon monoxide peak was monitored over a range of temperatures.

[2] = Peroxidase activity with ABTS and H2O2; type: biochemical; settings: for Peroxidase activity: 10 mM ABTS, 20 mM H2O2, pH 5.0, activities <0.2 not detectable (N.D.); for peroxidase activity relative to parents: ABTS
Description: P450s can reduce peroxide to water (and a proton) using a mechanism similar to that of peroxidases, although the intrinsic rate for P450s is many orders of magnitude slower. (Mansuy, D., Comp Biochem Physiol C Pharmacol Toxicol Endocrinol 121, 5-14 (1998)). It has been proposed that the earliest P450 function may have been as a peroxidase. (Gotoh, O., Cytochrome P450, 2nd Edition, pp. 255-272 (1993)). To investigate how recombination affects P450 peroxidase activity, the colorimetric substrate 2,2′-azino-bis(3-ethylbenzothiazoline-6-sulfonate) (ABTS) was used to monitor this reaction (Childs et al., Biochem J 145,93-103 (1975)).
This example provides an example of how one can measure peroxidase activity. Initial rates of peroxidase activity were measured by monitoring the accumulation of the radical cation of ABTS at 414 nm (Childs et al., Biochem J., 145:93-103 (1975)). Enzyme (1 μM) was mixed with 10 mM ABTS in 200 mM phosphate buffer (pH 5.0) in a cuvette at room temperature. Samples were zeroed and reactions were initiated with the addition of H2O2 to a concentration of 20 mM. The absorbance at 414 nm was monitored for 5 minutes. Rates were determined from the steepest portion of the time course. An extinction coefficient of […] for ABTS was used.

[3] = Peroxygenase activity on 2-phenoxy-ethanol (4-AAP assay); type: biochemical
Protocol: (§1) The chimeras were assayed for hydroxylation of p-nitrophenoxydodecanoic acid (12-pNCA), a fatty acid analog that is hydroxylated by CYP102A1 and CYP102A2 to yield p-nitrophenolate (Schwaneberg et al., Anal Biochem 269,359-366 (1999)). […] When hydroxylation rates for the parent CYP102 enzymes were monitored using the maximum soluble concentrations of these substrates, activity could only be detected on 2-phenoxy-ethanol.
(§2) Rates on 2-phenoxy-ethanol and allyloxy-benzene were determined using 2 μM enzyme, 20 mM H2O2, 1% DMSO, and 1% acetone in 100 mM N-[2-hydroxyethyl]piperazine-N′-[3-propanesulfonic acid] (Epps) (pH 8.2) at room temperature. Substrate concentrations for 2-phenoxy-ethanol (100 mM) and allyloxy benzene (50 mM) maintained saturation. Reactions were initiated by the addition of H2O2 and quenched at appropriate times using an equal volume of a solution containing 4M urea and 100 mM NaOH. 120 μl of 0.6% 4-AAP was added, followed by mixing and addition of 120 μl of 0.6% potassium persulfate. Color was allowed to develop for 20 minutes before absorbance was read at 500 nm. Rates were determined from the linear region of the time course. The major products were determined by GC/MS to be the hemiacetal, which decomposes to phenol. The extinction coefficient for the 4-AAP/phenol complex was determined to be 4,800 M^−1cm^−1. The results can be seen in FIG. 4.

[4] = Peroxygenase substrate activity profile; type: biochemical; settings: 20 mM H2O2
Protocol: as §1
Chimeras were assayed for peroxygenase activity on 12-pNCA, 2-phenoxy -ethanol and allyloxy-benzene. […] Rates are reported in nmol product/nmol P450/minute. […] Those with no activity include 65-256 and 277-365. Those with new activity include 165-256, 191-335, and 43-135.
This Example provides one method by which peroxygenase activity of a P450 enzyme may be characterized. First order rates for p-nitrophenolate accumulation were determined using 1 μM enzyme, 20 mM H2O2, 250 μM 12-pNCA and 0.5% dimethyl sulfoxide (DMSO) in 100 mM Tris-HCl (pH 8.2) at room temperature. Enzyme, substrate, buffer and DMSO were combined in a cuvette and zeroed at 410 nm. Reaction mixtures were incubated for 4 minutes and initiated by the addition of H2O2 to a final concentration of 20 mM. Initial rates were determined by monitoring the accumulation of p-nitrophenolate at 410 nm, and data from the first six seconds were used to determine initial rates. […] The extinction coefficient of p-nitrophenolate is 13,200 M^−1cm^−1 (Schwaneberg et al., Anal Biochem 269:359-366 (1999)).
as §2

| Molecule | Mammalian P450 (main mammalian P450 responsible for breakdown) (Mammalian P450) | Tm [1] [°C] | Peroxidase activity [2] | substrate activity profile relative to parents [4] | peroxidase activity relative to parents [2] | also measured |
| --- | --- | --- | --- | --- | --- | --- |
| COc1ccc(C(c2ccc(OC)cc2)C(Cl)(Cl)Cl)cc1 [methoxychlor] | CYP2B6 | – | – | – | – | – |
| CCCCNC(=O)NS(=O)(=O)c1ccc(C)cc1 [Tolbutamide] | CYP2C9 | – | – | – | – | – |
| Nc1ccc(-c2ccccc2)cc1 [4-aminobiphenyl] | CYP1A2 | – | – | – | – | – |
| Nc1c2c(nc3ccccc13)CCCC2 [Tacrine, 9-amino-1,2,3,4-tetrahydroacridine hydrochloride hydrate] | CYP1A2 | – | – | – | – | – |
| O=C(O)Cc1ccccc1Nc1c(Cl)cccc1Cl [Diclofenac] | CYP2C9 | – | – | – | – | – |
| B1 | – | 55 | 6.8 nmol product/nmol P450/min | altered activity | – | fold higher peroxygenase activity with 2-phenoxy-ethanol than the most active parent (CYP102A1) [3]: 6 fold; peroxygenase activity on 2-phenoxy-ethanol ([3]; 100 mM substrate): highest activity |
| B2 | – | 47 | 34.3 nmol product/nmol P450/min | parent-like profiles | significantly higher peroxidase activities | – |
| B3 | – | 52 | 10.4 nmol product/nmol P450/min | parent-like profiles | significantly higher peroxidase activities | – |
| B4 | – | 36 | – | no activity | no detectable peroxidase activity | – |
| B5 | – | 39 | – | no activity | no detectable peroxidase activity | – |
